Measurements reported in article PMC4741518, “Adaptive Remodeling of the Bacterial Proteome by Specific Ribosomal Modification Regulates Pseudomonas Infection and Niche Colonisation” (PLoS Genetics, 2016).
Values belong to the molecule of their own block, whether it stands above or below them.

Tests used:
RimA = molecular target: T1, RimA (Pseudomonas fluorescens, UniProt A0ACD4XU64); experiment: phosphodiesterase assay, TLC of […]-cdG; format: biochemical; conditions: labelled compound (100 μM cdG with 0.07 μM 32P-cdG); 10 mM MgCl2, pH 8.0, 30 °C; product pGpG
T1 construct: gene U0037_01330; full-length, His6-tagged (pETM11-rimA), E. coli BL21(DE3) pLysS, Ni-NTA purified

[1] = molecular target: Ribosomal protein S6 modification protein RimK (P. fluorescens SBW25)
Ribosomal protein S6 modification protein RimK (P. fluorescens SBW25), sequence (C3KE61 whole entry): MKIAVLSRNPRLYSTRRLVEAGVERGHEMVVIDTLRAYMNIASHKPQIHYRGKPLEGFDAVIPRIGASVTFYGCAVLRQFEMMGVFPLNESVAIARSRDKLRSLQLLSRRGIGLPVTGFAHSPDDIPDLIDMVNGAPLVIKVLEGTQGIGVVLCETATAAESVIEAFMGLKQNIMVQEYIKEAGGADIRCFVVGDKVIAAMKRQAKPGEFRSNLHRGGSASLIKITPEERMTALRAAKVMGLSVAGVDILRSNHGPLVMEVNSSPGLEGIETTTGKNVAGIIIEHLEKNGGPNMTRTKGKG

T1 sequence (A0ACD4XU64 entry or part of it): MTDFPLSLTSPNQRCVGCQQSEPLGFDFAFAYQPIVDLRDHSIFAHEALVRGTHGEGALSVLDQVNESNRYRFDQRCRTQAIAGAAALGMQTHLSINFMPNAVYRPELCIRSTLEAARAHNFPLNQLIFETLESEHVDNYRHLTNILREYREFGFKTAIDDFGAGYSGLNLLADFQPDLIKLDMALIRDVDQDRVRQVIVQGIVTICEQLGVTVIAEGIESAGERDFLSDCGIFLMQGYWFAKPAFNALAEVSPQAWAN

Molecule: Nc1nc2c(ncn2[C@@H]2O[C@@H]3COP(=O)(O)O[C@H]4[C@@H](O)[C@H](n5cnc6c(=O)[nH]c(N)nc65)O[C@@H]4COP(=O)(O)O[C@H]3[C@H]2O)c(=O)[nH]1 [cdG]
phosphodiesterase assay, TLC of 32P-cdG (RimA): RimA PDE activity was subsequently confirmed (Fig 4C)

RimKPf ATPase activity (linked PK/LDH assay, with glutamate): Vmax on addition of purified RimB; 113.6 without RimB [1]: 691 nmol/min/mg
Molecule: Putative uncharacterized protein RimB (natural protein)

RimKPf ATPase activity (linked PK/LDH assay, with glutamate): Vmax on addition of purified RimA; 234.9 without RimA [1]: 364 nmol/min/mg
Molecule: Conserved EAL domain protein RimA (enzyme)
